Assay results reported in US20260373285 (published 2026).

T1: human Trop-2 (His) (human, UniProt P09758)
T1 chain: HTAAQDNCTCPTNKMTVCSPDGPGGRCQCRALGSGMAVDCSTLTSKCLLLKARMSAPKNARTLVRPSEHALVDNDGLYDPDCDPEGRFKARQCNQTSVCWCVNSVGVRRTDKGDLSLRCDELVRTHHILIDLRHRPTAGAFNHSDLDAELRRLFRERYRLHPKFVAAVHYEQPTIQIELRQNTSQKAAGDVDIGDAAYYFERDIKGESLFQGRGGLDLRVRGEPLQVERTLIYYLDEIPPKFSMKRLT


Biological target: T1, human Trop-2 (His)
Assay: SPR

Kd [nM]	Binder
75.1	Trop-2-YC-82hz-4 (antibody, V domains shown) VH: EVQVVESGGGLVQPGGSLRLSCAASGYIFSNSGMGWYRQAPGQGLELVAAISSGGTTHYADSVKGRFTISRDNSKNTLYLQMNSLRAEDTAVYYCNGDRYYSGTDVFGSWGQGTLVTVSS
48.2	Trop-2-YC-82hz-3 (antibody, V domains shown) VH: EVQVVESGGGLVQPGGSLRLSCAASGYIFSNSGMGWYRQAPGKGLELVAAISSGGTTHYAQSVKGRFTISRDNSKNTVYLQMNSLRPEDTAVYYCNGDRYYSGTDVFGSWGQGTLVTVSS
38.1	Trop-2-YC-82hz-1 (antibody, V domains shown) VH: EVQVVESGGGLVQPGGSLRLSCATSGYIFSNSGMGWYRQAPGKGLELVAAISSGGTTHYADSVKGRFTISRDNSKNTVYLQMNSLRAEDTAVYYCNGDRYYSGTDVFGSWGQGTLVTVSS
76.5	Trop-2-YC-82hz-5 (antibody, V domains shown) VH: EVQVVESGGGLVQPGGSLRLSCAASGYIFSNSGMGWYRQAPGQGLELVAAISSGGTTHYAQSVKGRFTISRDNSKNTLYLQMNSLRAEDTAVYYCNGDRYYSGTDVFGSWGQGTLVTVSS
23.8	Trop-2-YC-82hz-2 (antibody, V domains shown) VH: EVQVVESGGGLVQPGGSLRLSCATSGYIFSNSGMGWYRQAPGKQRELVAAISSGGTTHYADSVKGRFTISRDNSKNTVYLQMNSLRAEDTAVYYCNGDRYYSGTDVFGSWGQGTLVTVSS

biological target: hPD-L1(ECD)-His (human, UniProt Q9NZQ7); assay: SPR supernatant
Sequence (Q9NZQ7 19-238): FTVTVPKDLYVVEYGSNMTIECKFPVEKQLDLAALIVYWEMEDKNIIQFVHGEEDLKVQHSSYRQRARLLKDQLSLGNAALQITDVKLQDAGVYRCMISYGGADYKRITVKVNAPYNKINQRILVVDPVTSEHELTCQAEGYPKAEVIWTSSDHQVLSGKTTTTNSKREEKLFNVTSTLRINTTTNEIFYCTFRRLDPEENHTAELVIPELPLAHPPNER

Binder	Kd [nM]
PD-L1-1.168.15-z0-uIgG1K (antibody, V domains shown) VH: EVQLVQSGAEVKKPGATVKISCKVSGFNIEDTYIYWVQQAPGKGLEWMGWIDPANYNTKYDPRFQDRVTITADTSTDTAYMELSSLRSEDTAVYYCARGLRLLMDYWGQGTTVTVSS VL: DIQLTQSPSFLSASVGDRVTITCKASQNVHTSLAWYQQKPGKAPKLLIYLASNRHTGVPSRFSGSGSGTEFTLTISSLQPEDFATYYCLQHWNYPLTFGQGTKLEIKR	1.29
PD-L1-1.168.15-z17-uIgG1K (antibody, V domains shown) VH: EVQLVQSGAEVKKPGATVKISCKVSGFNIEDTYIYWVQQAPGKGLEWMGWIDPANYNTKYDPRFQDRVTVTVDTSTNTAYMELSSLRSEDTAVYYCARGLRLLMDYWGQGTTVTVSS VL: DIQMTQSPSFLSASVGDRVTITCKASQNVHTSLAWYQQKPGKSPKALIYLASNRHTGVPSRFSGSGSGTEFTLTISSLQPEDFATYFCLQHWNYPLTFGQGTKLEIKR	1.67
PD-L1-1.168.15-z5-uIgG1K (antibody, V domains shown) VH: EVQLVQSGAEVKKPGATVKISCKVSGFNIEDTYIYWVQQAPGKGLEWMGWIDPANYNTKYDPRFQDRVTITADTSTDTAYMELSSLRSEDTAVYYCARGLRLLMDYWGQGTTVTVSS VL: DIQLTQSPSFLSASVGDRVTITCKASQNVHTSLAWYQQKPGKSPKALIYLASNRHTGVPSRFSGSGSGTEFTLTISSLQPEDFATYYCLQHWNYPLTFGQGTKLEIKR	1.24
PD-L1-1.168.15-z2-uIgG1K (antibody, V domains shown) VH: EVQLVQSGAEVKKPGATVKISCKVSGFNIEDTYIYWVQQAPGKGLEWMGWIDPANYNTKYDPRFQDRVTITADTSTDTAYMELSSLRSEDTAVYYCARGLRLLMDYWGQGTTVTVSS VL: DIQLTQSPSFLSASVGDRVTITCKASQNVHTSLAWYQQKPGKAPKALIYLASNRHTGVPSRFSGSGSGTEFTLTISSLQPEDFATYYCLQHWNYPLTFGQGTKLEIKR	1.4
PD-L1-1.168.15-z18-uIgG1K (antibody, V domains shown) VH: EVQLVQSGAEVKKPGATVKLSCKVSGFNIEDTYIYWVQQAPGKGLEWIGWIDPANYNTKYDPRFQDRVTVTVDTSTNTAYMELSSLRSEDTAVYYCARGLRLLMDYWGQGTTVTVSS VL: DIQMTQSPSFLSASVGDRVTITCKASQNVHTSLAWYQQKPGKSPKALIYLASNRHTGVPSRFSGSGSGTEFTLTISSLQPEDFATYFCLQHWNYPLTFGQGTKLEIKR	1.86
PD-L1-1.168.15-z15-uIgG1K (antibody) chain 1: not shown chain 2: DIQMTQSPSFLSASVGDRVTITCKASQNVHTSLAWYQQKPGKSPKALIYLASNRHTGVPSRFSGSGSGTEFTLTISSLQPEDFATYFCLQHWNYPLTFGQGTKLEIKRTVAAPSVFIFPPSDEQLKSGTASVVCLLNNFYPREAKVQWKVDNALQSGNSQESVTEQDSKDSTYSLSSTLTLSKADYEKHKVYACEVTHQGLSSPVTKSFNRGEC	1.19
PD-L1-1.168.15-z12-uIgG1K (antibody) chain 1: not shown chain 2: DIQMTQSPSFLSASVGDRVTITCKASQNVHTSLAWYQQKPGKSPKALIYLASNRHTGVPSRFSGSGSGTEFTLTISSLQPEDFATYYCLQHWNYPLTFGQGTKLEIKRTVAAPSVFIFPPSDEQLKSGTASVVCLLNNFYPREAKVQWKVDNALQSGNSQESVTEQDSKDSTYSLSSTLTLSKADYEKHKVYACEVTHQGLSSPVTKSFNRGEC	1.13

Next, values leading:

Kd [nM]	Binder
1.09	PD-L1-1.168.15-z1-uIgG1K (antibody, V domains shown) VH: EVQLVQSGAEVKKPGATVKISCKVSGFNIEDTYIYWVQQAPGKGLEWMGWIDPANYNTKYDPRFQDRVTITADTSTDTAYMELSSLRSEDTAVYYCARGLRLLMDYWGQGTTVTVSS VL: DIQLTQSPSFLSASVGDRVTITCKASQNVHTSLAWYQQKPGKSPKLLIYLASNRHTGVPSRFSGSGSGTEFTLTISSLQPEDFATYYCLQHWNYPLTFGQGTKLEIKR
1	PD-L1-1.168.15-z16-uIgG1K (antibody, V domains shown) VH: EVQLVQSGAEVKKPGATVKISCKVSGFNIEDTYIYWVQQAPGKGLEWIGWIDPANYNTKYDPRFQDRVTITVDTSTNTAYMELSSLRSEDTAVYYCARGLRLLMDYWGQGTTVTVSS VL: DIQMTQSPSFLSASVGDRVTITCKASQNVHTSLAWYQQKPGKSPKALIYLASNRHTGVPSRFSGSGSGTEFTLTISSLQPEDFATYFCLQHWNYPLTFGQGTKLEIKR
0.998	PD-L1-1.168.15-z6-uIgG1K (antibody, V domains shown) VH: EVQLVQSGAEVKKPGATVKISCKVSGFNIEDTYIYWVQQAPGKGLEWMGWIDPANYNTKYDPRFQDRVTITVDTSTDTAYMELSSLRSEDTAVYYCARGLRLLMDYWGQGTTVTVSS VL: DIQLTQSPSFLSASVGDRVTITCKASQNVHTSLAWYQQKPGKAPKALIYLASNRHTGVPSRFSGSGSGTEFTLTISSLQPEDFATYYCLQHWNYPLTFGQGTKLEIKR
0.844	PD-L1-1.168.15-z201-uIgG1K (antibody, V domains shown) VH: EVQLVQSGAEVKKPGATVKLSCKVSGFNIEDTYIYWVQQAPGKGLEWIGWIDPANYNTKYDPRFQDRVTVTVDTSTNTAYMELSSLRSEDTAVYYCARGLRLLMDYWGQGTTVTVSS VL: DIVMTQSQKFMSSSVGDRVSITCKASQNVHTSLAWYQQRPGQSPKALIYLASNRHTGVPDRFTGSGSGTDFTLTISNVQSEDLADYFCLQHWNYPLTFGAGTKLELRR
0.501	PD-L1-1.168.15-z202-uIgG1K (antibody, V domains shown) VH: EVQLQQSGAELVKPGASVKLSCTVSGFNIEDTYIYWVKQRPEQGLEWIGWIDPANYNTKYDPRFQDKATVTVDTSSNTAYMHLSSLTSEDTAVYYCARGLRLLMDYWGQGTSVTVSS VL: DIQMTQSPSFLSASVGDRVTITCKASQNVHTSLAWYQQKPGKSPKALIYLASNRHTGVPSRFSGSGSGTEFTLTISSLQPEDFATYFCLQHWNYPLTFGQGTKLEIKR
1.07	PD-L1-1.168.15-z14-uIgG1K (antibody) chain 1: not shown chain 2: DIQMTQSPSFLSASVGDRVTITCKASQNVHTSLAWYQQKPGKSPKALIYLASNRHTGVPSRFSGSGSGTEFTLTISSLQPEDFATYFCLQHWNYPLTFGQGTKLEIKRTVAAPSVFIFPPSDEQLKSGTASVVCLLNNFYPREAKVQWKVDNALQSGNSQESVTEQDSKDSTYSLSSTLTLSKADYEKHKVYACEVTHQGLSSPVTKSFNRGEC
1.13	PD-L1-1.168.15-z8-uIgG1K (antibody) chain 1: not shown chain 2: DIQLTQSPSFLSASVGDRVTITCKASQNVHTSLAWYQQKPGKSPKALIYLASNRHTGVPSRFSGSGSGTEFTLTISSLQPEDFATYYCLQHWNYPLTFGQGTKLEIKRTVAAPSVFIFPPSDEQLKSGTASVVCLLNNFYPREAKVQWKVDNALQSGNSQESVTEQDSKDSTYSLSSTLTLSKADYEKHKVYACEVTHQGLSSPVTKSFNRGEC
1.01	PD-L1-1.168.15-z7-uIgG1K (antibody) chain 1: not shown chain 2: DIQLTQSPSFLSASVGDRVTITCKASQNVHTSLAWYQQKPGKSPKALIYLASNRHTGVPSRFSGSGSGTEFTLTISSLQPEDFATYYCLQHWNYPLTFGQGTKLEIKRTVAAPSVFIFPPSDEQLKSGTASVVCLLNNFYPREAKVQWKVDNALQSGNSQESVTEQDSKDSTYSLSSTLTLSKADYEKHKVYACEVTHQGLSSPVTKSFNRGEC
1.04	PD-L1-1.168.15-z13-uIgG1K (antibody) chain 1: not shown chain 2: DIQLTQSPSFLSASVGDRVTITCKASQNVHTSLAWYQQKPGKSPKALIYLASNRHTGVPSRFSGSGSGTEFTLTISSLQPEDFATYFCLQHWNYPLTFGQGTKLEIKRTVAAPSVFIFPPSDEQLKSGTASVVCLLNNFYPREAKVQWKVDNALQSGNSQESVTEQDSKDSTYSLSSTLTLSKADYEKHKVYACEVTHQGLSSPVTKSFNRGEC
0.995	PD-L1-1.168.15-z10-uIgG1K (antibody) chain 1: not shown chain 2: DIQMTQSPSFLSASVGDRVTITCKASQNVHTSLAWYQQKPGKSPKALIYLASNRHTGVPSRFSGSGSGTEFTLTISSLQPEDFATYYCLQHWNYPLTFGQGTKLEIKRTVAAPSVFIFPPSDEQLKSGTASVVCLLNNFYPREAKVQWKVDNALQSGNSQESVTEQDSKDSTYSLSSTLTLSKADYEKHKVYACEVTHQGLSSPVTKSFNRGEC
0.915	PD-L1-1.168.15-z9-uIgG1K (antibody) chain 1: not shown chain 2: DIQLTQSPSFLSASVGDRVTITCKASQNVHTSLAWYQQKPGKSPKALIYLASNRHTGVPSRFSGSGSGTEFTLTISSLQPEDFATYFCLQHWNYPLTFGQGTKLEIKRTVAAPSVFIFPPSDEQLKSGTASVVCLLNNFYPREAKVQWKVDNALQSGNSQESVTEQDSKDSTYSLSSTLTLSKADYEKHKVYACEVTHQGLSSPVTKSFNRGEC
